Test results reported in US20210380703A1 (RIGEL PHARMACEUTICALS, published 2021).
Residue numbers refer to the chain shown, from its start.

B1: 367_E09 (antibody, V domains shown)
VH: EVQLLESGGGLVQPGGSLRLSCAASGFTFSDYGMNWVRQAPGKGLEWVASINYNSGYKGYADSVKGRFTISRDNSKNTLYLQMNSLRAEDTAVYYCARSANWHDTALDYWGQGTLVTVSS
VL: DIQMTQSPSSLSASVGDRVTITCRASQSILSYLNWYQQKPGKAPKLVIYATTSRASGVPSRFSGSGSGTDFTLTISSLQPEDFATYYCQQSYETPLTFGGGTKVEIK
B2: 367_F03 (antibody, V domains shown)
VH: B1 VH with D31S, G33S, S50G, G59S
VL: B1 VL with L33V, T51A, R54L, Y92D, E93D
B3: 367_F11 (antibody, V domains shown)
VH: B1 VH with D31S, G33S, S50G, K58T, A106H
VL: not shown
B4: 368_A01 (antibody, V domains shown)
VH: B1 VH with D31S, A49S, S50N, S55G, K58T, G59S
VL: B1 VL with L30I, V47L, T51A, A55H, E93D, T94N
B5: 367_F07 (antibody, V domains shown)
VH: B1 VH with S30D, D31S, N35H, S50N, S55G, K58T
VL: B1 VL with L30I, L33V, V47L, T51A
B6: 367_H06 (antibody, V domains shown)
VH: B1 VH with D31S, A49S, S50N, S55G, K58T, A106H
VL: B1 VL with L30I, S31T, V47L, T51A, E93D
B7: 367_E11 (antibody, V domains shown)
VH: B1 VH with S30D, D31S, A49S, A106H
VL: B1 VL with L30V, L33V, T51A, A55H, E93D
B8: 367_H11 (antibody, V domains shown)
VH: B1 VH with D31S, S50G, S55G
VL: B1 VL with L30I, L33V, T51A, E93N, T94S
B9: 367_G05 (antibody, V domains shown)
VH: B1 VH with S50N, S55G, K58T, G59S
VL: B1 VL with L30V, T51A, R54L, E93D
B10: 368_A07 (antibody, V domains shown)
VH: B1 VH with D31S, G33S, S50G, K58T, G59S, A106H
VL: B1 VL with S31T, Y92N, T94L
B11: 368_A05 (antibody, V domains shown)
VH: B1 VH with D31S, G33S, S50G, K58T
VL: B1 VL with L30V, T51A, E93D, T94S
B12: 367_G10 (antibody, V domains shown)
VH: B1 VH with S30D, A49S, S50G, S55G, K58T, G59S
VL: B1 VL with L30I, L33V, V47L, T51A, E93D, T94S
B13: 367_G06 (antibody, V domains shown)
VH: B1 VH with D31S, A49S, S50G, G59S, A106H
VL: B1 VL with S31T, L33V, V47L, R54L, A55H, E93D
B14: 368_A09 (antibody, V domains shown)
VH: B1 VH with S30D, D31S, G33S, A49S, S50G, S55G, K58T, G59S, A106H
VL: B1 VL with L33V, V47L, T51V, E93D, T94S

Target: T1, Human ACVR2A (human, UniProt P27037 20-135, limits assumed)
T1 construct: also called activin receptor, type II A
Experiment: ELISA
How it was run: (§1)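 Binding signal was read by ELISA after ACVR2A-specific monoclonal antibodies were tested against human ACVR2A and mouse ACVR2A, with human Fc as the negative control.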
Note: test concentration or dose not given here.

T1 sequence (P27037 20-135 limits assumed): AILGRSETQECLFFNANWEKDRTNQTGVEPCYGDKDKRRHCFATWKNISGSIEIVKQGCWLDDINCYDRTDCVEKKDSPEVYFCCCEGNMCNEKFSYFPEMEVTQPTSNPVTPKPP

| optical density | Binder |
| --- | --- |
| 1.66 OD | B1 |
| 2.1 OD | B2 |
| 1.71 OD | B3 |
| 2.99 OD | B4 |
| 2.13 OD | B5 |
| 2.69 OD | B6 |
| 2.4 OD | B7 |
| 2.37 OD | B8 |
| 2.41 OD | B9 |
| 2.11 OD | B10 |
| 2.71 OD | B11 |
| 2.12 OD | B12 |
| 2.64 OD | B13 |
| 2.51 OD | B14 |

Target: Mouse ACVR2A (mouse, UniProt P27038 20-135, limits assumed)
Experiment: ELISA
How it was run: as §1

Chain of Mouse ACVR2A (P27038 20-135 limits assumed): as the sequence (P27037 20-135 limits assumed) above, with K20R, V73I counted along it

| optical density | Binder |
| --- | --- |
| 1.81 OD | B1 |
| 2.39 OD | B2 |
| 1.87 OD | B3 |
| 2.9 OD | B4 |
| 2.25 OD | B5 |
| 3.08 OD | B6 |
| 2.91 OD | B7 |
| 2.69 OD | B8 |
| 2.71 OD | B9 |
| 2.31 OD | B10 |
| 2.7 OD | B11 |
| 2.32 OD | B12 |
| 2.81 OD | B13 |
| 2.63 OD | B14 |

Target: T2, Goat anti-Human Kappa
T2 construct: Positive control of the ELISA; also called biotinylated goat anti-human kappa light chain
Experiment: ELISA, positive control
How it was run: as §1

| optical density | Binder |
| --- | --- |
| 3.33 OD | B1 |
| 3.45 OD | B2 |
| 3.48 OD | B3 |
| 3.68 OD | B4 |
| 3.26 OD | B5 |
| 3.65 OD | B6 |
| 3.61 OD | B7 |
| 3.61 OD | B8 |
| 3.37 OD | B9 |
| 3.65 OD | B10 |
| 3.46 OD | B11 |
| 3.45 OD | B12 |
| 3.35 OD | B13 |
| 3.55 OD | B14 |
